Where two headings read alike, the source gives them in different places.
Key:
[1] = target: Cse4 150-229 (sedimentation sample) (budding yeast) (UniProt P36012); assay: AUC
[2] = target: Cse4 150-229 (sedimentation sample) (budding yeast) (UniProt P36012); assay: AUC; remark: listed apart in the source
[3] = target: single chain Cse4-H4 (His6-KK-Cse4_(151–207)-LVPRGS-H4_(45–103)) (budding yeast | not stated) (UniProt P36012); assay: ITC

Sequence of Scm3 84-169 (Q12334 84-169): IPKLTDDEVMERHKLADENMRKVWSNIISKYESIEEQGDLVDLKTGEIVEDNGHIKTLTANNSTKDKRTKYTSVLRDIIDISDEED

stoichiometry N [1]	stoichiometry N [2]	fold reduction of the binding affinity against the wild type [3] [fold]	Substance
1	1		Scm3 84-169 (from UniProt Q12334 84-169) (domain or fragment)
1	1		histone H4, full length (from UniProt P02309 1-103) (natural protein)
		85	Scm3 Ile110Asp/Ile117Asn (from UniProt Q12334 83-169) (domain or fragment)

From publication PMC3077455
